Experimental data as given in article PMC5959753 (Cell chemical biology, 2018).
Read-outs that look alike come from different tables or passages of the source.

Experiments:
[1] = target: the molecule itself; assay: crystal structure
[2] = target: the molecule itself; assay: crystal structure; remark: listed apart in the source

Protein	stoichiometry N [1]	stoichiometry N [2]
Neurospora crassa C-S lyase Egt2, wild type (enzyme, UniProt A7UX13 1-473, looked up, PLP covalently bound to K247 (internal aldimine); selenomethionine in the derivative crystals used for the final structure) MVATTVELPLQQKADAAQTVTGPLPFGNSLLKEFVLDPAYRNLNHGSFGTIPSAIQQKLRSYQTAAEARPCPFLRYQTPVLLDESRAAVANLLKVPVETVVFVANATMGVNTVLRNIVWSADGKDEILYFDTIYGACGKTIDYVIEDKRGIVSSRCIPLIYPAEDDDVVAAFRDAIKKSREEGKRPRLAVIDVVSSMPGVRFPFEDIVKICKEEEIISCVDGAQGIGMVDLKITETDPDFLISNCHKWLFTPRGCAVFYVPVRNQHLIRSTLPTSHGFVPQVGNRFNPLVPAGNKSAFVSNFEFVGTVDNSPFFCVKDAIKWREEVLGGEERIMEYMTKLAREGGQKVAEILGTRVLENSTGTLIRCAMVNIALPFVVGEDPKAPVKLTEKEEKDVEGLYEIPHEEANMAFKWMYNVLQDEFNTFVPMTFHRRRFWARLSAQVYLEMSDFEWAGKTLKELCERVAKGEYKESA	2	
Neurospora crassa C-S lyase Egt2 Y134F (enzyme, UniProt A7UX13 1-473, looked up, PLP covalently bound to K247 (internal aldimine)) MVATTVELPLQQKADAAQTVTGPLPFGNSLLKEFVLDPAYRNLNHGSFGTIPSAIQQKLRSYQTAAEARPCPFLRYQTPVLLDESRAAVANLLKVPVETVVFVANATMGVNTVLRNIVWSADGKDEILYFDTIFGACGKTIDYVIEDKRGIVSSRCIPLIYPAEDDDVVAAFRDAIKKSREEGKRPRLAVIDVVSSMPGVRFPFEDIVKICKEEEIISCVDGAQGIGMVDLKITETDPDFLISNCHKWLFTPRGCAVFYVPVRNQHLIRSTLPTSHGFVPQVGNRFNPLVPAGNKSAFVSNFEFVGTVDNSPFFCVKDAIKWREEVLGGEERIMEYMTKLAREGGQKVAEILGTRVLENSTGTLIRCAMVNIALPFVVGEDPKAPVKLTEKEEKDVEGLYEIPHEEANMAFKWMYNVLQDEFNTFVPMTFHRRRFWARLSAQVYLEMSDFEWAGKTLKELCERVAKGEYKESA		2
